Data set [1] relates to HeLa Kyoto. Briefly: thermal stability score vs G1/S (z-score of summed log2 fold changes over temperatures); higher = more thermally stable than in G1/S.
For data set [2], the system named is HeLa Kyoto. Briefly: melting temperature (median over replicates), in situ; higher = more thermally stable.
Data set [3] relates to HeLa Kyoto. Briefly: solubility change mitosis vs G1/S (difference of NP-40 vs SDS log2 ratios) (log2 ratio difference); higher = more soluble in mitosis.
The test system of data set [4] is HeLa Kyoto. Briefly: solubility in G1/S (NP-40 vs SDS abundance) (log2 ratio); higher = more soluble. The conditions noted are these: cell cycle stage: G1/S.
The mark [5] stands for this setting: cell cycle stage: early G1 (4.5 h after nocodazole release).
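Wherever melting temperature (median over replicates), in situ is given: HeLa Kyoto cells synchronized by double thymidine or nocodazole block, proteins quantified by TMT10plex mass spectrometry, three independent biological replicates.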
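Wherever solubility change mitosis vs G1/S (difference of NP-40 vs SDS log2 ratios) is given: synchronized HeLa Kyoto cells (double thymidine block for G1/S, nocodazole release for mitosis), protein amounts in NP-40 versus SDS lysates quantified by mass spectrometry, three biological replicates.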
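Wherever solubility in G1/S (NP-40 vs SDS abundance) is given: HeLa Kyoto cells arrested at G1/S by double thymidine block, proteins quantified by TMT10plex mass spectrometry in mild NP-40 versus SDS extracts, three biological replicates.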
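Wherever thermal stability score vs G1/S (z-score of summed log2 fold changes over temperatures) is given: synchronized HeLa Kyoto cells, proteins quantified by TMT10plex mass spectrometry, three biological replicates, mitosis taken 0.5 h after nocodazole release, G1/S directly after double thymidine block.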

Sequence of CIAO1 (chain, as listed by the source): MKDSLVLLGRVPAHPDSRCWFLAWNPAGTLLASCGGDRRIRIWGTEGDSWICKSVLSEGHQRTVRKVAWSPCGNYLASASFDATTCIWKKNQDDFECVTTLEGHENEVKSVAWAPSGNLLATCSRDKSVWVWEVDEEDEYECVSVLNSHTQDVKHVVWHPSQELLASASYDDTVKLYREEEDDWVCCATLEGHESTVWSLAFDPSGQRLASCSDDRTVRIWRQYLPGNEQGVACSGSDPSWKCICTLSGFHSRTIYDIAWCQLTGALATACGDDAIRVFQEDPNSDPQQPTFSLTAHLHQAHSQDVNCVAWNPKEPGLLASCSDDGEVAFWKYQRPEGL

Regarding “MYLVAGDRGLAGCGHLLVSLLGLLLLLARSGTRALVCLPCDESKCEEPRNCPGSIVQGVCGCCYTCASQRNESCGGTFGIYGTCDRGLRCVIRPPLNGDSLTEYEAGVCEDENWTDDQLLGFKPCNENLIAGCNIINGKCECNTIRTCSNPFEFPSQDMCLSALKRIEEEKPDCSKARCEVQFSPRCPEDSVLIEGYAPPGECCPLPSRCVCNPAGCLRKVCQPGNLNILVSKASGKPGECCDLYECKPVFGVDCRTVECPPVQQTACPPDSYETQVRLTADGCCTLPTRCECLSGLCGFPVCEVGSTPRIVSRGDGTPGKCCDVFECVNDTKPACVFNNVEYYDGDMFRMDNCRFCRCQGGVAICFTAQCGEINCERYYVPEGECCPVCEDPVYPFNNPAGCYANGLILAHGDRWREDDCTFCQCVNGERHCVATVCGQTCTNPVKVPGECCPVCEEPTIITVDPPACGELSNCTLTGKDCINGFKRDHNGCRTCQCINTEELCSERKQGCTLNCPFGFLTDAQNCEICECRPRPKKCRPIICDKYCPLGLLKNKHGCDICRCKKCPELSCSKICPLGFQQDSHGCLICKCREASASAGPPILSGTCLTVDGHHHKNEESWHDGCRECYCLNGREMCALITCPVPACGNPTIHPGQCCPSCADDFVVQKPELSTPSICHAPGGEYFVEGETWNIDSCTQCTCHSGRVLCETEVCPPLLCQNPSRTQDSCCPQCTDQPFRPSLSRNNSVPNYCKNDEGDIFLAAESWKPDVCTSCICIDSVISCFSESCPSVSCERPVLRKGQCCPYCIEDTIPKKVVCHFSGKAYADEERWDLDSCTHCYCLQGQTLCSTVSCPPLPCVEPINVEGSCCPMCPEMYVPEPTNIPIEKTNHRGEVDLEVPLWPTPSENDIVHLPRDMGHLQVDYRDNRLHPSEDSSLDSIASVVVPIIICLSIIIAFLFINQKKQWIPLLCWYRTPTKPSSLNNQLVSVDCKKGTRVQVDSSQRMLRIAEPDARFSGFYSMQKQNHLQADNFYQTV [CRIM1]”, the figures for the thermal stability score in the data set with HeLa Kyoto [1] (setting [5]) and in the data set with HeLa Kyoto [1] (cell cycle stage: mitosis) were -2.44 and -0.713, respectively. Moreover, the figures for the melting temperature in the data set on HeLa Kyoto [2] (cell cycle stage: G1/S) and in the data set with HeLa Kyoto [2] (cell cycle stage: mitosis) were 53.8 °C and 54.9 °C, respectively. Besides, in the data set on HeLa Kyoto [3], the “solubility change mitosis (log2)” value was -0.0635. Besides, in the data set on HeLa Kyoto [4], the “solubility in G1/S (log2)” value was -0.0525.

On to “MAEPSAATQSHSISSSSFGAEPSAPGGGGSPGACPALGTKSCSSSCADSFVSSSSSQPVSLFSTSQEGLSSLCSDEPSSEIMTSSFLSSSEIHNTGLTILHGEKSHVLGSQPILAKEGKDHLDLLDMKKMEKPQGTSNNVSDSSVSLAAGVHCDRPSIPASFPEHPAFLSKKIGQVEEQIDKETKNPNGVSSREAKTALDADDRFTLLTAQKPPTEYSKVEGIYTYSLSPSKVSGDDVIEKDSPESPFEVIIDKAAFDKEFKDSYKESTDDFGSWSVHTDKESSEDISETNDKLFPLRNKEAGRYPMSALLSRQFSHTNAALEEVSRCVNDMHNFTNEILTWDLVPQVKQQTDKSSDCITKTTGLDMSEYNSEIPVVNLKTSTHQKTPVCSIDGSTPITKSTGDWAEASLQQENAITGKPVPDSLNSTKEFSIKGVQGNMQKQDDTLAELPGSPPEKCDSLGSGVATVKVVLPDDHLKDEMDWQSSALGEITEADSSGESDDTVIEDITADTSFENNKIQAEKPVSIPSAVVKTGEREIKEIPSCEREEKTSKNFEELVSDSELHQDQPDILGRSPASEAACSKVPDTNVSLEDVSEVAPEKPITTENPKLPSTVSPNVFNETEFSLNVTTSAYLESLHGKNVKHIDDSSPEDLIAAFTETRDKGIVDSERNAFKAISEKMTDFKTTPPVEVLHENESGGSEIKDIGSKYSEQSKETNGSEPLGVFPTQGTPVASLDLEQEQLTIKALKELGERQVEKSTSAQRDAELPSEEVLKQTFTFAPESWPQRSYDILERNVKNGSDLGISQKPITIRETTRVDAVSSLSKTELVKKHVLARLLTDFSVHDLIFWRDVKKTGFVFGTTLIMLLSLAAFSVISVVSYLILALLSVTISFRIYKSVIQAVQKSEEGHPFKAYLDVDITLSSEAFHNYMNAAMVHINRALKLIIRLFLVEDLVDSLKLAVFMWLMTYVGAVFNGITLLILAELLIFSVPIVYEKYKTQIDHYVGIARDQTKSIVEKIQAKLPGIAKKKAE [RTN3]”, for which the thermal stability score was 0.293 in the data set with HeLa Kyoto [1] (setting [5]) and -1.15 in the data set with HeLa Kyoto [1] (cell cycle stage: mitosis). Also, the melting temperature came out at 55.7 °C in the data set with HeLa Kyoto [2] (cell cycle stage: G1/S) and 57.6 °C in the data set with HeLa Kyoto [2] (cell cycle stage: mitosis). The “solubility change mitosis (log2)” value in the data set on HeLa Kyoto [3] is -0.108. Moreover, the “solubility in G1/S (log2)” value with HeLa Kyoto [4] is 0.125.

Consider CIAO1, for which the thermal stability score with HeLa Kyoto [1] (setting [5]) is -0.588; in the data set on HeLa Kyoto [1] (cell cycle stage: mitosis) it was -2.26. In addition, the melting temperature with HeLa Kyoto [2] (cell cycle stage: G1/S) came to 52.5 °C; with HeLa Kyoto [2] (cell cycle stage: mitosis), 52.9 °C. Further, in the data set with HeLa Kyoto [3], the “solubility change mitosis (log2)” value was -0.176. In the data set on HeLa Kyoto [4], the “solubility in G1/S (log2)” value is -0.222.

In the case of “MAVADLALIPDVDIDSDGVFKYVLIRVHSAPRSGAPAAESKEIVRGYKWAEYHADIYDKVSGDMQKQGCDCECLGGGRISHQSQDKKIHVYGYSMAYGPAQHAISTEKIKAKYPDYEVTWANDGY [PHPT1]”, the results for the thermal stability score in the data set with HeLa Kyoto [1] (setting [5]) and with HeLa Kyoto [1] (cell cycle stage: mitosis) were -0.712 and -1.99, respectively. Also, the melting temperature in the data set on HeLa Kyoto [2] (cell cycle stage: G1/S) is 52.9 °C; in the data set on HeLa Kyoto [2] (cell cycle stage: mitosis), 53.5 °C. Also, the “solubility change mitosis (log2)” value in the data set with HeLa Kyoto [3] was found to be 0.028. In the data set on HeLa Kyoto [4], the “solubility in G1/S (log2)” value amounted to 0.345.
